Results reported in paper PMC12255788.

Target: His6-SUMO-NOT7 (human) (UniProt Q9UIV1)
Test: mass photometry

Sequence of His6-SUMO-NOT7 (human) (Q9UIV1 whole entry): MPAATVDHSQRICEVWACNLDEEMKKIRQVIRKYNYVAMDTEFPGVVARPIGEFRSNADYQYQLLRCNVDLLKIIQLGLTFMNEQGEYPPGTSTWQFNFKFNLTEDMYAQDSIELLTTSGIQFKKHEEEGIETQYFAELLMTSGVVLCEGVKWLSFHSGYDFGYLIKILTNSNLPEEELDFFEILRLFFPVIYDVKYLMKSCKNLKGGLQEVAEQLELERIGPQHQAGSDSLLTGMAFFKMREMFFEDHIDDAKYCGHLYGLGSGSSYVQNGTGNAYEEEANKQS

“His6-PieF (from UniProt A0AAN5PHN6) (natural protein)” showed a stoichiometry N of 1.
